Results from the DeepSol protein solubility set.

Assay: soluble on expression in E. coli; label from the status in PepcDB or PDB records

Sequence | soluble on expression in E. coli
MSTRYPTLTRSGFVLPERMKASYEGAADGRRSATWDAPDTGVNSLIMPALRNLRSRSRAAVRNDPYAANAIDRRVSNLIGTGITPQPRIADKELRRIFQETWEDWVDESDADQLTDFYGQQALIARTVEQSGECFVRLRPRRMDDGLAVPLQLQCLAPEFVPHDKFEVTSTGNIIRAGIEFNGFGKRVAYWCYRSHPSDMTSINAGYNMLVRIPASQMLHIFEPVEPGQLRGVPRLAPVLKRLRSLDNFDDAVLFRQEVANLFAGFIRKPSADGPPMLDPLTGAPIKIGGDGFTPMVALEPGTMQELLPGEEVEFSTPPDGGNNYPDFMRQQLMAAAAGAGLPYELMTGDMRGVNDRTIRVVLNEFRRRLEQLQFSVYVHQLCRPVRAAWMDMAVLSGALQLDDYAARRREYLRTRWVPQGWSYIHPVQDVQSRTMEINAGLASRSEMCLRTGTDAEIVDEENAADAARARGLGLNYSTLSAFDEDPDEKENP | not soluble
MGSDKIHHHHHHMITTARPNVLWIMADQLRFDYLSCYGHPHLHTPHIDALAARGVRFTNAYVQSPVCGPSRMSAYTGRYVRSHGSTWNGMPLRVGEPTLGDHLREAGARAVLVGKTHMVADAEGMAWLGIDPKSEIGVSRSECGFEPFERDDGLHPDSPRQRWSAYDDYLVSHGYDSQNPWEDFANSGVDADGELLSAWLLKNSRLAANVPEEHSETAYMTDRAMAFMEEAEADGRPWMCHLSYIKPHWPYIVPAPYHDMYDESHIIDPVRSEAERDNAHPLVGAYQNSRVCRTFSRDQVRDHVIPAYMGLIKQLDDNLGRLFAWMDARGLSENTIIAFTSDHGDYMGDHWMGEKDFYHEMAVKVPMIIADPRPQADGTRGHVADDLVEMIDLAPTFMTALGAAPKPHIIEGRDLTPLLHGTDGFARQYVISEYDYHWSEMAAALQVPQEDAHTTMIFDGRWKYIRCERFDPVLFDLETDPQELVDLGTSPAHAEIRALMDAALLKWATQHHTRITATAAVLAGQKIAAETGILIGFWDEAEFEAATGFPFTDLTPQGPPK | not soluble
MPLTPADVHNVAFSKPPIGKRGYNEDEVDAFLDLVEQELSRLIEENADLRQRVGELDKELADAKKAPRSGSAAPTPAPKAEPARVVEQPKAPAPAPAPAAAAAAAPAQGADAHMQAAKVLGLAQEMADRLTSDAKTESEQLLGNARTNSEQLVSDARTRSETMIADARQKSEALITDAQTRSETQLRQAKEKADALQADAEKKHTEIMATINQQRSVLEGRIEQLKTFEREYRVRLKSYLESQLEELEQRGSAVPVDGGQDSFAQGGSQSNYSQSYAKGNS | not soluble
MDFNLNDEQELFVAGIRELMASENWEAYFAECDRDSVYPERFVKALADMGIDSLLIPEEHGGLDAGFVTLAAVWMELGRLGAPTYVLYQLPGGFNTFLREGTQEQIDKIMAFRGTGKQMWNSAITEPGAGSDVGSLKTTYTRRNGKIYLNGSKCFITSSAYTPYIVVMARDGASPDKPVYTEWFVDMSKPGIKVTKLEKLGLRMDSCCEITFDDVELDEKDMFGREGNGFNRVKEEFDHERFLVALTNYGTAMCAFEDAARYANQRVQFGEAIGRFQLIQEKFAHMAIKLNSMKNMLYEAAWKADNGTITSGDAAMCKYFCANAAFEVVDSAMQVLGGVGIAGNHRISRFWRDLRVDRVSGGSDEMQILTLGRAVLKQYR | soluble
MGSDKIHHHHHHAQRVITASGKYITKNIKVTRFDQIYLKGSPTIEYTQSPGASKVQIAGSDNLVDLVECRVEGSTLIVNMKSRTNISYGKEGRLKILVSSPMLKSASLQGSGDIHLGSLKVEGLDVSLTGSGDIVAENITCNSDFSALLKGSGDIDVKGQLRAKSVNLNLQGSGDLKVAGVTGSEISAMLQGSGDLKVGSTNITSTVMAKLSGSGDMDVLDIRANSVSGQLDGSGDMTLSGSACNATLVLNRSGELSARKLDAENVTAHVNGSGEISCTATKTLETNIQGSGEISYKGNPSIRSTGKNHLNRL | not soluble
MRVELDFRSVKMQVSQYLYQNVQSIWGDCISHPFVQGIGRGTLERDKFRFYIIQDYLFLLEYAKVFALGVVKACDEAVMREFSNAIQDILNNEMSIHNHYIRGLQITQKELQNARPTLANKSYTSYMLAEGFKGSIKEVAAAVLSCGWSYLVIAQNLSQIPNALEHAFYGHWIKGYSSKEFQACVNWNINLLDSLTLTSSKQEIEKLKDIFITTSEYEYLFWDMAYQSLEHHHHHH | not soluble
MMGCLPTKQVGRSTHSLNPREAVALAAETSFTVNEVEALYDLFRKLSNSIIKDGLIHKEEFHLALFRNKKTNLFVDRVFDLFDQKGNGVIEFDEFVRSLSVFHPDAPEEQKAGFAFKLYDLRQTGFIERHELKEMVLALLDESDLNITSDAVEMIVDRTFDQADTKGDERIDQEEWNEFVKNNPYVLRNMTLPYLKDLTMVFPSFVIHSEVSEADMVA | soluble
MRKLSTRPLPLGDGFFDSSSDSSESELSDKDDEDRYSDSTVSTLTSQDRRDTQGCQYPRSSELPISESPAPRARRARKQRSKRKSVKPPNTSSDDSSDDSDDSSSSSSSDDSVSSKSSTNSSDSSPCRCRDGLAEWEQRHGRRWHPYGRNGTWEPYRNRRRGIYDCENSPRETYSNGA | not soluble
MFPQTTMDHILHPTPREGYYVVELNRSVWVVPNYYINLTPIGTGAYGTVCAAECTRSGTRVAIKKFNRPFQSIIHARRTYRELRLLRCMCHENIIDLLDVFTPNENVNDIEDVYFVSMLMGADLSNILKIQRLNDDHIQFLVYQILRGLKYIHSADIIHRDLKPSNIAVNEDCELKILDFGLARQTDSEMTGYVATRWYRAPEIMLNWMHYTQTVDVWSVGCILAELITGKTLFPGSDHIDQLTRIMSVTGTPDEEFLKKISSEEARNYIRNLPKMTRRDFKRLFAQATPQAIDLLEKMLHLDPDRRPTAKEAMEHEYLAAYHDETDEPIAEEMDLNDDVRADTIDEWKKIIWEEISDFQKNVAFADEEEDEEKMES | not soluble
MGSDKIHHHHHHVKVLVTGAAGFIGYSLATRLLARGDEVIGVDIVNDYYDPRLKEARLARLAQQGGGRFTFLRTDFADYPALTAALEGAHFDRIVHLGAQAGVRYSIENPHAYVQSNLVGHVNLLEVARHRGVEHMVYASSSSVYGGNTKLPFSVDDRVDHPLSLYAATKKADELMSETYAHLYRLPLTGLRFFTVYGPWGRPDMMMWLFTRAILAGEPIQVFNHGDMYRDFTYVDDIVSGVVACLDNPPLDDGAPKAGGSLKPHRLYNIGNHKSEHLMKVIAILEAELGRKAEMRMLPMQPGDVRQSFADIDAISGDLGYRPTTGIETGVPNFVRWYKDYHGL | not soluble
MSRKKMGLLVMAMGTPYKEEDIERYYTHIRRGRKPEPEMLQDLKDRYEAIGGISPLAQITEQQAHNLEQHLNEIQDEITFKAYIGLKHIEPFIEDAVAEMHKDGITEAVSIVLAPHFSTFSVQSYNKRAKEEAEKLGGLTITSVESWYDEPKFVTYWVDRVKETYASMPEDERENAMLIVSAHSLPEKIKEFGDPYPDQLHESAKLIAEGAGVSEYAVGWQSEGNTPDPWLGPDVQDLTRDLFEQKGYQAFVYVPVGFVADHLEVLYDNDYECKVVTDDIGASYYRPEMPNAKPEFIDALATVVLKKLGR | soluble
MKEVKKEYLTLDEVKILAQTPCEHDVLKRASLFSCLTGLRISDILNLRWEDFTLAPDQGYCIRIRTQKTSTEATLPISYEAYELCGEPSSGKVFKGLQRSMINYPLKKWIKQAGIMKHITFHCFRHSYAVIQISLGTDIYTVSKMLTHKNVSTTQIYADLEHHHHHH | not soluble
MIDIIANIASILGFTMQMNDKFFAHGMNKEQADNEMLLLFLKQLSVKSKAIKEIHQKYHSLSNDFRLVAVFLTNPVIYEKIVTNRSRALRNALKESLQTPSARIAQTQLSAQLRPCFENLLVSIKDESHLSVEFSGINDCEMKAILRKILNAQKEIFQLHQQFCGIMKTIGSYPLGNWGDSEFDFIKTNQRVFISDFYSIIDYADIILMGYLDIYHCALNLK | not soluble
MNKLRRQLSMNSLLIDTSNQPLSVALMQNDEVLAEITTDSKQNHSVQLMPAISQLFEQSKIAKQQLDAIIVAEGPGSYTGLRIGVTVAKTLAYALDVKLYGVSSLKALAATIDHTDKLLVPVFDARRQAVYTGIFQWQNGQLVTILEDQYMSIEALRAFLEDLNQPFIYIGKDTIKLQDELQGEVIAQLPNASVMYQLIDKPTDVHTFTPKYHKLAEAERNWINSQKNN | not soluble
AEPDTESSELSGSVSYRIVSVVNTITASHWDEKELLDKAELIDYPVRKCAHMSEYAILTLLGFLTFSFLHGRGRFLVPIGVTFLYACTDEFHQLFVPGRAGR | not soluble
MRDSLNNGVSLQQAQETYFAKFNHYSYMAHFVAKILGQRPSHVLSGWGVSELIVAYGHYANEQSYQNFMDWKSSQENAPKPKQPQPFVVQFISQDELEEVE | not soluble
GHMENKVINFKKIIDSRGSLVAIEENKNIPFSIKRVYYIFDTKGEEPRGFHANKKLEQVLVCLNGSCRVILDDGNIIQEITLDSPAVGLYVGPAVWHEMHDFSSDCVMMVLASDYYDETDYIRQYDNFKKYIAKINLEKEG | soluble
MSLNTRQLLSVGIDIGTTTTQVIFSRLELVNRAAVSQVPRYEFIKREISWQSPVFFTPVDKQGGLKEAELKTLILEQYHAAGIEPESVDSGAIIITGESAKTRNARPAVMALSQSLGDFVVASAGPHLESVIAGHGAGAQTLSEQRLCRVLNIDIGGGTANYALFDAGKISGTACLNVGGRLLETDSHGRVVYAHKPGQMIVDECFGAGTDARSLTGAQLVQVTRRMAELIVEVIDGTLSPLAQALMQTGLLPAGVTPEIITLSGGVGECYRHQPADPFCFADIGPLLATALHDHPRLREMNVQFPAQTVRATVIGAGAHTLSLSGSTIWLEGVQLPLRNLPVAIPIDETDLVGAWQQALIQLDLDPKTDAYVLALPASLPVRYAAVLTVINALVDFVARFPNPHPLLVVAGQDFGKALGMLLRPQLQQLPLAVIDEVIVRAGDYIDIGTPLFGGSVVPVTVKSLAFPSEGHHHHHH | soluble
MSILEKIFKTRKDITYMLDLDMIEDLSQQAYVKRLAIDSCIEFVARAVAQSHFKVLEGNRIQKNDVYYKLNIKPNTDLSSDSFWQQVIYKLIYDNEVLIVVSDSKELLIADSFYREEYALYDDIFKDVTVKDYTYQRTFTMQEVIYLKYNNNKVTHFVESLFEDYGKIFGRMIGAQLKNYQIRGILKSASSAYDEKNIEKLQAFTNKLFNTFNKNQLAIAPLIEGFDYEELSNGGKNSNMPFSELSELMRDAIKNVALMIGIPPGLIYGETADLEKNTLVFEKFCLTPLLKKIQNELNAKLITQSMYLKDTRIEIVGVNKKDPLQYAEAIDKLVSSGSFTRNEVRIMLGEEPSDNPELDEYLITKNYEKANSGENDEKEKDENTLKGGDEDESGD | not soluble
IGADVDLATLSGLDGAALHFEQTIFILDNGTGQPTGGEWQGAVGSYFGGAPLHNDIASNQLSLLTYKQKWLDGQLDLHVGRTNGRRYFYIYNCETGVTCNDPILDASSGMLPPPFGAWGGYLKYQVNPRFYVHAGAFESNPVDYLKKRKGLDFSTDDASGTSFLVGIGSKPGDNTTQYELNA | not soluble
MKLKLVDVETNPHEEEVGTCEFCMSVEMVNEPVFVFKKDIGELVRVKAFIWSWGFYDEENIENIVDFAAYVNEQEFDEEQELDYSWLTNLIYEYEYGKDC | not soluble
MSLARARMKERGVEVSDIAELVFFLQKKYHPDLTIDECTLNVNRVLAKREVQNAILTGIELDVLAEQKKLSEPLQTMLEIDESLYGVDEVLAFSIVNIYGSIGFTNYGYIDKEKPGILKRLNDKSTGECHTFLDDIVGAISAAASSRLAHREGHHHHHH | not soluble
